Experimental data: US20220356245A1 (FORTY SEVEN, published 2022)
One block for each binder: values may come before it.

How the values were obtained:
[1] = molecular target: T1, human CD47 (hCD47) expressed on cells (human, UniProt Q08722 19-323); assay: flow cytometry, hCD47-CHO cells, competition with His-hSIRPα; upper end tied to candidate 33 by Table 5
T1 construct: Transfected CHO cells or endogenous CD47 of human cells; also called CHO-hCD47; CD47 on Raji cells
Protocol: (§1) Human CD47-transfected cells (3×10⁵ cells/well of 96-well plate) were first incubated at +4° C. for 30 minutes with serial dilutions of anti-CD47 antibodies or isotype control antibody (in mIgG2a or mIgG1 format). […] The percentage inhibition was plotted against antibody concentration and the IC50 values were calculated using a nonlinear regression analysis model of the GraphPad Prism software.

[2] = molecular target: T1, human CD47 (hCD47) expressed on cells; assay: flow cytometry, hCD47-CHO cells, competition with His-hSIRPα
Protocol: as §1

[3] = molecular target: T1, human CD47 (hCD47) expressed on cells; assay: flow cytometry, Raji cells
[4] = molecular target: T2, hu-sCD47-6His; extracellular domain of human CD47 antigen with 6His-tag (human); assay: SPR Biacore T200, antibody captured, hCD47-his analyte;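 note: antibodies captured on anti-IgG (Fc) CM5 chip, five sequential 10 min antigen injections at rising concentrations, reference flow cell and antigen-free cycle as controls, 1:1 model fit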
T2 construct: also called hCD47-his; soluble hCD47

[5] = molecular target: T1, human CD47 (hCD47) expressed on cells; assay: cell-based or functional assay
[6] = molecular target: T3, mouse CD47 (mCD47) expressed on CHO cells (mouse, UniProt Q61735 19-303); assay: flow cytometry, CHO-mCD47 cells
T3 construct: whole, on cells; also called CHO-mCD47
T3 sequence (looked up): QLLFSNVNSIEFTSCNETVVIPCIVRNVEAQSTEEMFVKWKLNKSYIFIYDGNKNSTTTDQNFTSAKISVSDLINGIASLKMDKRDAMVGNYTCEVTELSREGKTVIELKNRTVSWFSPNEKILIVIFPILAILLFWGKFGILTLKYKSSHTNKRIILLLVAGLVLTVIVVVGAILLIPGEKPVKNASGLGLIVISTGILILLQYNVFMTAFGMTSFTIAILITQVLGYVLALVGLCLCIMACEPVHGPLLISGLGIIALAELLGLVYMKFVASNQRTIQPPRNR

[7] = molecular target: T1, human CD47 (hCD47) expressed on cells; assay: flow cytometry, hCD47-CHO cells, competition with His-hSIRPα; lower end tied to candidate 26 by Table 5
Protocol: as §1

- IC50 [1]: 7.3 nM
- IC50 [2]: 1.11 µg/mL
- EC50 [3]: 0.112 µg/mL
- Kd [4]: 0.898 nM
- koff [4]: 6.7e-05 s⁻¹
- kon [4]: 74600 M⁻¹ s⁻¹
- Phagocytic index, Raji cells and human macrophages, antibody at 0.125 µg/mL [5]: 71.4 Raji cells ingested per 100 macrophages
B1: Candidate 33 (VL008-AL17-8G5-8K7), mouse IgG (antibody, V domains shown)
VH: LVQLQQSGPELVKPGTSVKISCRSSGYTFTDYYINWVQQRPGQGLEWVGWIFPGSGLTYYNKKFKGKATLSVDKSSNTAYMLLSSLTSEDSAVYFCARPYYGSRWDYTMDYWGQGTSVTVSS
VL: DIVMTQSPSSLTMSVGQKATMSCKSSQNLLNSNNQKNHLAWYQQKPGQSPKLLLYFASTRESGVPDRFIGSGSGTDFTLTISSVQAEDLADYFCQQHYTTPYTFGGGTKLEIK
notes: Recombinant mouse IgG2a or mIgG1 format, by assay
- binding result [6]: no binding (tested: 7.3 µg/mL highest concentration)

- IC50 [2]: 0.359 µg/mL
- EC50 [3]: 0.07 µg/mL
- Kd [4]: 1.87 nM
- koff [4]: 0.000372 s⁻¹
- kon [4]: 200000 M⁻¹ s⁻¹
- IC50 [7]: 2.4 nM
- Phagocytic index, Raji cells and human macrophages, antibody at 0.125 µg/mL [5]: 85.3 Raji cells ingested per 100 macrophages
B2: Candidate 26 (VT008-AL6-10G3-10K1), mouse IgG (antibody, V domains shown)
VH: QVQLQQPGPELVKPGASVKLSCKASGYTFTNYWIHWLNQRPGRGLEWIGRIDPNSGGTKYNEKFKSKAILTVDKSSSTTYMQLSSLTSEDSAVYYCARGGYTMDYWGQGTSVTVSS
VL: DVVMPQTPLSLPVSLGDHASISCRSSQSLLHSNGNTYLHWYLQKPGQSPKLLIYKVSYRFSGVPDRISGSGSGTDFTLKISRVEAEDLGVYFCFQSTHVPWTFGGGTKLEIK
notes: as for B1
